From patent US11278600B2, “Human alpha-galactosidase variants” (Codexis, Inc., priority 2014, dated 2022)

Experiments:
Format in all cases: biochemical
[1] = HTP-analysis of supernatants pretreated with base (MUGal hydrolysis); details: activity of the variant/activity of Rd4BB (SEQ ID NO: 15); challenge at pH 9.65
In short: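 Supernatants from INVSc1 yeast expressing GLA variants (SD-Ura, 66-84 h, 30° C) were mixed with McIlvaine buffer pH 7.0-8.2 or 200 mM sodium bicarbonate pH 9.1-9.7 and held 1-18 h at 37° C. Residual activity was then measured on MUGal at pH 4.8/4.3, 37° C, 30-180 min, by fluorescence (Ex 355/Em 448 nm).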

[2] = HTP-analysis of yeast culture supernatants, no challenge (MUGal hydrolysis); details: activity of the variant/activity of Rd4BB (SEQ ID NO: 15)
In short: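 GLA variants were expressed in INVSc1 yeast grown in SD-Ura broth with glucose at 30° C., and culture supernatants were collected after 66-84 h. Supernatant was mixed with McIlvaine buffer pH 4.8 and MUGal (2 mM stock) in 50 mM citrate, 200 mM KCl, pH 4.6, incubated at 37° C. for 30-180 minutes, then quenched with sodium carbonate.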

[3] = HTP-analysis of supernatants pretreated with acid (MUGal hydrolysis); details: activity of the variant/activity of Rd4BB (SEQ ID NO: 15); challenge at pH 3.7
In short: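 Fluorescence of MUGal hydrolysis (Ex. 355 nm, Em. 448 nm) is read after sodium carbonate quench. The enzyme source is INVSc1 yeast culture supernatant, first exposed to pH 3.3-4.3 McIlvaine buffer at 37° C. for 1-3 h, then reacted at pH 4.8 for 30-180 minutes.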

Molecule | Relative Activity of GLA Variants After Challenge at pH 9.65 [1] | Relative Activity of GLA Variants After No Challenge (NC) [2] | Relative Activity of GLA Variants After Challenge at pH 3.7 [3]
505 (protein, Synthetic Polypeptide sequence of Variant No. 505 of mature Human GLA) LDNGLARTPTMGWLHWERFMCNLDCQEEPDSCISEKLFMEMAERMVSEGWKDAGYEYLCIDDCWMAPQRDSEGRLQADPQRFPHGIRQLANYVHSKGLKLGIYADVGNKTCAGFPGSFGYYDIDAQTFADWGVDLLKFDGCYCDSLENLADGYKHMSLALNRTGRSIVYSCEWPLYMWPFQKPNYTEIRQYCNHWRNFADIDDSWKSIKSILDWTSFNQERIVDVAGPGGWNDPDMLVIGNFGLSWNQQVTQMALWAIMAAPLFMSNDLRHISPQAKALLQDKDVIAINQDPLGKQGYQLRQGDNFEVWERPLSGLAWAVAMINRQEIGGPRSYTIAVASLGKGVACNPACFITQLLPVKRKLGFYEWTSRLRSHINPTGTVLLQLENTMQNSLKDLL | + (0.5 to 1.5 relative activity over Rd4BB (SEQ ID NO: 15)) | + (0.5 to 1.5 relative activity over Rd4BB (SEQ ID NO: 15)) | + (0.5 to 1.5 relative activity over Rd4BB (SEQ ID NO: 15))
507 (protein, Synthetic Polypeptide sequence of Variant No. 507 of mature Human GLA) LDNGLARTPTMGWLHWERFMCNLDCQEEPDSCISEKLFMEMAERMVSEGWKDAGYEYLCIDDCWMAPQRDSEGRLQADPQRFPHGIRQLANYVHSKGLKLGIYADVGNKTCAGFPGSFGYYDIDAQTFADWGVDLLKFDGCYCDSLENLADGYKHMSLALNRTGRSIVYSCEWPLYMWPFQKPNYTEIRQYCNHWRNFADIDDSWKSIKSILDWTSFNQERIVDVAGPGGWNDPDMLVIGNFGLSWNQQVTQMALWAIMAAPLFMSNDLRHISPQAKALLQDKDVIAINQDPLGKQGYQLRQGDNFEVWERPLSGLAWAVAMINRQEIGGPRSYTIAVASLGKGVACNPACFITQLLPVKRKLGFYEWTSRLRSHINPTGTVLLQLENTMQTSLKDLL | + (0.5 to 1.5 relative activity over Rd4BB (SEQ ID NO: 15)) | + (0.5 to 1.5 relative activity over Rd4BB (SEQ ID NO: 15)) | ++ (>1.5 to 2.5 relative activity over Rd4BB (SEQ ID NO: 15))
506 (protein, Synthetic Polypeptide sequence of Variant No. 506 of mature Human GLA) LDNGLARTPTMGWLHWERFMCNLDCQEEPDSCISEKLFMEMAERMVSEGWKDAGYEYLCIDDCWMAPQRDSEGRLQADPQRFPHGIRQLANYVHSKGLKLGIYADVGNKTCAGFPGSFGYYDIDAQTFADWGVDLLKFDGCYCDSLENLADGYKHMSLALNRTGRSIVYSCEWPLYMWPFQKPNYTEIRQYCNHWRNFADIDDSWKSIKSILDWTSFNQERIVDVAGPGGWNDPDMLVIGNFGLSWNQQVTQMALWAIMAAPLFMSNDLRHISPQAKALLQDKDVIAINQDPLGKQGYQLRQGDNFEVWERPLSGLAWAVAMINRQEIGGPRSYTIAVASLGKGVACNPACFITQLLPVKRKLGFYEWTSRLRSHINPTGTVLLWLENTMQMSLKDLL | − (<0.5 relative activity over Rd4BB (SEQ ID NO: 15)) | + (0.5 to 1.5 relative activity over Rd4BB (SEQ ID NO: 15)) | + (0.5 to 1.5 relative activity over Rd4BB (SEQ ID NO: 15))
510 (protein, Synthetic Polypeptide sequence of Variant No. 510 of mature Human GLA) LDNGLARTPTMGWLHWERFMCNLDCQEEPDSCISEKLFMEMAERMVSEGWKDAGYEYLCIDDCWMAPQRDSEGRLQADPQRFPHGIRQLANYVHSKGLKLGIYADVGNKTCAGFPGSFGYYDIDAQTFADWGVDLLKFDGCYCDSLENLADGYKHMSLALNRTGRSIVYSCEWPLYMWPFQKPNYTEIRQYCNHWRNFGDIDDSWKSIKSILDWTSFNQERIVDVAGPGGWNDPDMLVIGNFGLSWNQQVTQMALWAIMAAPLFMSNDLRHISPQAKALLQDKDVIAINQDPLGKQGYQLRQGDNFEVWERPLSGLAWAVAMINRQEIGGPRSYTIAVASLGKGVACNPACFITQLLPVKRKLGFYEWTSRLRSHINPTGTVLLQLENTMQRSLKDLL | + (0.5 to 1.5 relative activity over Rd4BB (SEQ ID NO: 15)) | + (0.5 to 1.5 relative activity over Rd4BB (SEQ ID NO: 15)) | − (<0.5 relative activity over Rd4BB (SEQ ID NO: 15))
509 (protein, Synthetic Polypeptide sequence of Variant No. 509 of mature Human GLA) LDNGLARTPTMGWLHWERFMCNLDCQEEPDSCISEKLFMEMAERMVSEGWKDAGYEYLCIDDCWMAPQRDSEGRLQADPQRFPHGIRQLANYVHSKGLKLGIYADVGNKTCAGFPGSFGYYDIDAQTFADWGVDLLKFDGCYCDSLENLADGYKHMSLALNRTGRSIVYSCEWPLYMWPFQKPNYTEIRQYCNHWRNFADIDDSWKSIKSILDWTSFNQERIVDVAGPGGWNDPDMLVIGNFGLSWNQQVTQMALWAIMAAPLFMSNDLRHISPQAKALLQDKDVIAINQDPLGKQGYQLRQGDNFEVWERPLSGLAWAVAMINRQEIGGPRSYTIAVASLGKGVACNPACFITQLLPVKRKLGFYEWTSRLRSHINPTGTVLLTLENTMQMSLKDLL | + (0.5 to 1.5 relative activity over Rd4BB (SEQ ID NO: 15)) | + (0.5 to 1.5 relative activity over Rd4BB (SEQ ID NO: 15)) | + (0.5 to 1.5 relative activity over Rd4BB (SEQ ID NO: 15))
508 (protein, Synthetic Polypeptide sequence of Variant No. 508 of mature Human GLA) LDNGLARTPTMGWLHWERFMCNLDCQEEPDSCISEKLFMEMAERMVSEGWKDAGYEYLCIDDCWMAPQRDSEGRLQADPQRFPHGIRQLANYVHSKGLKLGIYADVGNKTCAGFPGSFGYYDIDAQTFADWGVDLLKFDGCYCDSLENLADGYKHMSLALNRTGRSIVYSCEWPLYMWPFQKPNYTEIRQYCNHWRNFADIDDSWKSIKSILDWTSFNQERIVDVAGPGGWNDPDMLVIGNFGLSWNQQVTQMALWAIMAAPLFMSNDLRHISPQAKALLQDKDVIAINQDPLGKQGYQLRQGDNFEVWERPLSGLAWAVAMINRQEIGGPRSYTIAVASLGKGVACNPACFITQLLPVKRKLGFYEWTSRLRSHINPTGTVLAQLENTMQMSLKDLL | − (<0.5 relative activity over Rd4BB (SEQ ID NO: 15)) | − (<0.5 relative activity over Rd4BB (SEQ ID NO: 15)) | − (<0.5 relative activity over Rd4BB (SEQ ID NO: 15))
372 (protein, Synthetic Polypeptide sequence of Variant No. 372 of mature Human GLA) LDNGLARTPTMGWLHWERFMCNLDCQEEPDSCISEKLFMEMAEVMVSEGWKDAGYEYLCIDDCWMAPQRDSEGRLQADPQRFPHGIRQLANYVHSKGLKLGIYADVGNKTCAGFPGSFGYYDIDAQTFADWGVDLLKFDGCYCDSLENLADGYKHMSLALNRTGRSIVYSCEWPLYMWPFQKPNYTEIRQYCNHWRNFADIDDSWKSIKSILDWTSRNQERIVDVAGPGGWNDPDMLVIGNFGLSWDQQVTQMALWAIMAAPLFMSNDLRHISPQAKALLQDKDVIAINQDPLGKQGYQLRKGDNFEVWERPLSGDAWAVAIINRQEIGGPRSYTIPVASLGKGVACNPACFITQLLPVKRQLGFYNWTSRLKSHINPTGTVLLQLENTMQMSLKDLL | + (0.5 to 1.5 relative activity over Rd4BB (SEQ ID NO: 15)) | + (0.5 to 1.5 relative activity over Rd4BB (SEQ ID NO: 15)) | − (<0.5 relative activity over Rd4BB (SEQ ID NO: 15))
373 (protein, Synthetic Polypeptide sequence of Variant No. 373 of mature Human GLA) LDNGLARTPTMGWLHWERFMCNLDCQEEPDSCISEKLFMERAERMVSEGWKDAGYEYLCIDDCWMAPQRDSEGRLQADPQRFPHGIRQLANYVHSKGLKLGIYADVGNKTCAGFPGSFGYYDIDAQTFADWGVDLLKFDGCYCDSLENLADGYKHMSLALNRTGRSIVYSCEWPLYMWPFQKPNYTEIRQYCNHWRNFADIDDSWKSIKSILDWTSRNQERIVDVAGPGGWNDPDMLVIGNFGLSWDQQVTQMALWAIMAAPLFMSNDLRHISPQAKALLQDKDVIAINQDPLGKQGYQLRKGDNFEVWERPLSGDAWAVAIINRQEIGGPRSYTIPVASLGKGVACNPACFITQLLPVKRQLGFYNWTSRLKSHINPTGTVLLQLENTMQMSLKDLL | − (<0.5 relative activity over Rd4BB (SEQ ID NO: 15)) | − (<0.5 relative activity over Rd4BB (SEQ ID NO: 15)) | − (<0.5 relative activity over Rd4BB (SEQ ID NO: 15))
